Source: patent US9175305B2, “Mutant hydroxyphenylpyruvate dioxygenase polypeptides and methods of use” (Syngenta Participations AG, priority 2009, dated 2015)
Substitutions are numbered along the chain they refer to. In names and notes the source's numbering stands.

What was measured:
[1] = catalytic activity and herbicide resistance of mutants of SEQ ID NO:14 in extracts; type: biochemical, Avena sativa
Excerpt: These further mutations can all be optionally combined with the resistance conferring mutations to produce catalytically active variants of HPPD herbicide resistant enzymes of the current invention.

[2] = Km and kcat of expressed HPPDs (HPLC/UV quantitation of homogentisate); type: biochemical, Avena sativa; conditions: for Rate: kcat relative to non-mutated HPPD SEQ ID NO:14: for V217I, L271I, L271V, V258M, A326R estimated from initial rates in cell extracts, pH 7.0, 25° C., 120 μM HPP; for Km / kcat: HPPDs expressed in extracts, 25° C., pH 7.0; for kcat: one active-site per dimer assumed
Description: The assay solution was transferred to Chromacol 03-CVG HPLC vials, sealed and the amount of homogentisate formed in a 40 μl aliquot determined by injection onto a reverse phase Aqua C18 5μ 75×4.6 mm HPLC column running 5.5% acetonitrile 0.1% TFA (Buffer A) at 1.5 ml/min. The column was eluted at 1.5 ml/minute using a 2 minute wash in buffer A, followed by a 2 minute wash in a 30/70 mixture of buffer A and 100% Acetonitrile, and a further 3.5 minute wash in buffer A. The elution of homogentisate was monitored by UV at 292 nm and the amount formed in each reaction quantified by comparison with a standard calibration curve.
Km and Vmax values were determined (for example FIG. 1) using a non linear least squares fit using Grafit 4™ software (Erithacus Software, Middlesex, UK). Kcat values were determined by dividing the maximum rate, Vmax expressed in nmol/second by the number of nmoles of HPPD enzyme (based on the concentration determined by active-site titration).
Experiments were carried out as described for Table 4. ‘Sulc’ denotes sulcotrione and ‘nd’ means ‘no data’. For V217I, L271I, L271V, V258M and A326R, the relative values of kcat were estimated from comparisons of the initial rates in cell extracts of similarly prepared and expressed HPPDs in conventional enzyme activity assays at pH 7.0, 25° C. and at a substrate concentration of 120 μM HPP.

B1: S415K: S415K mutant of SEQ ID NO:14 (protein)
chain: MPPTPATATGAAAAAVTPEHAARSFPRVVRVNPRSDRFPVLSFHHVELWCADAASAAGRFSFALGAPLAARSDLSTGNSAHASLLLRSGALAFLFTAPYAPPPQEAATAATASIPSFSADAARTFAAAHGLAVRSVGVRVADAAEAFRVSVAGGARPAFAPADLGHGFGLAEVELYGDVVLRFVSYPDETDLPFLPGFERVSSPGAVDYGLTRFDHVVGNVPEMAPVIDYMKGFLGFHEFAEFTAEDVGTTESGLNSVVLANNSEAVLLPLNEPVHGTKRRSQIQTYLEYHGGPGVQHIALASNDVLRTLREMRARTPMGGFEFMAPPQAKYYEGVRRIAGDVLSEEQIKECQELGVLVDRDDQGVLLQIFTKPVGDRPTFFLEMIQRIGCMEKDEVGQEYQKGGCGGFGKGNFKELFKSIEDYEKSLEVKQSVVAQKS
modifications: mutant HPPD polypeptide
[1]
  catalytic activity and resistance to sulcotrione relative to control, unmutated SEQ ID NO:14: neutral mutations

B2: V217I: V217I mutant of HPPD SEQ ID NO:14 (protein)
chain: B1 chain with V217I, K415S
modifications: mutant HPPD polypeptide
[2]
  Rate: kcat relative to non-mutated HPPD SEQ ID NO:14: 1.1

B3: SEQ ID #26: SEQ ID NO:14 with M for L within G(I,V)LVDR and M for L within SGLNS (protein, listed as Avena sativa)
chain: B1 chain with L255M, L358M, K415S
[2]
  Km: 10.6 µM
  kcat: 4.05 s⁻¹

B4: G254S: G254S mutant of SEQ ID NO:14 (protein)
chain: B1 chain with G254S, K415S
modifications: mutant HPPD polypeptide
[1]
  catalytic activity and resistance to sulcotrione relative to control, unmutated SEQ ID NO:14: neutral mutations

B5: L281I: mutant of HPPD SEQ ID NO:14, called L271I in the text (protein)
chain: B1 chain with L271I, K415S
modifications: mutant HPPD polypeptide
[2]
  Rate: kcat relative to non-mutated HPPD SEQ ID NO:14: 1.7

B6: A326S: A326S mutant of SEQ ID NO:14 (protein)
chain: B1 chain with A326S, K415S
modifications: mutant HPPD polypeptide
[1]
  catalytic activity and resistance to sulcotrione relative to control, unmutated SEQ ID NO:14: neutral mutations

B7: SEQ ID #18: SEQ ID NO:14 with substitution of T for I within the sequence motif SQIQTY (protein, listed as Avena sativa)
chain: B1 chain with I284T, K415S
[2]
  Km: 36 µM
  kcat: 17.94 s⁻¹

B8: S415Q: S415Q mutant of SEQ ID NO:14 (protein)
chain: B1 chain with K415Q
modifications: mutant HPPD polypeptide
[1]
  catalytic activity and resistance to sulcotrione relative to control, unmutated SEQ ID NO:14: neutral mutations

B9: M325L: M325L mutant of HPPD SEQ ID NO:14 (protein)
chain: B1 chain with M325L, K415S
modifications: mutant HPPD polypeptide
[2]
  Rate: kcat relative to non-mutated HPPD SEQ ID NO:14: 1.2

B10: L281V: mutant of HPPD SEQ ID NO:14, called L271V in the text (protein)
chain: B1 chain with L271V, K415S
modifications: mutant HPPD polypeptide
[2]
  Rate: kcat relative to non-mutated HPPD SEQ ID NO:14: 2

B11: L269F: L269F mutant of SEQ ID NO:14 (protein)
chain: B1 chain with L269F, K415S
modifications: mutant HPPD polypeptide
[1]
  catalytic activity and resistance to sulcotrione relative to control, unmutated SEQ ID NO:14: neutral mutations

B12: L269M: L269M mutant of SEQ ID NO:14 (protein)
chain: B1 chain with L269M, K415S
modifications: mutant HPPD polypeptide
[1]
  catalytic activity and resistance to sulcotrione relative to control, unmutated SEQ ID NO:14: neutral mutations

B13: SEQ ID #14: HPPD derived from Avena sativa; single deletion variant of the Avena sativa HPPD (protein)
chain: B1 chain with K415S
modifications: mutant HPPD polypeptide
[2]
  Km: 5.38 µM
  kcat: 6.46 s⁻¹
  Rate: kcat relative to non-mutated HPPD SEQ ID NO:14: 1

B14: SEQ ID #24: SEQ ID NO:14 with substitution of M for L within the sequence motif G(I,V)LVDRD (protein, listed as Avena sativa)
chain: B1 chain with L358M, K415S
[2]
  Km: 4.74 µM
  kcat: 4.35 s⁻¹

B15: SEQ ID #21: SEQ ID NO:14 with substitution of V for I within the sequence motif SQIQTY (protein, listed as Avena sativa)
chain: B1 chain with I284V, K415S
[2]
  Km: 5.98 µM
  kcat: 5.47 s⁻¹

B16: L358M: L358M mutant of HPPD SEQ ID NO:14 (apparently the change of SEQ ID NO:24) (protein)
chain: B1 chain with L358M, K415S
modifications: mutant HPPD polypeptide
[2]
  Rate: kcat relative to non-mutated HPPD SEQ ID NO:14: 0.7

B17: T372S: T372S mutant of SEQ ID NO:14 (protein)
chain: B1 chain with T372S, K415S
modifications: mutant HPPD polypeptide
[1]
  catalytic activity and resistance to sulcotrione relative to control, unmutated SEQ ID NO:14: neutral mutations

B18: I299M: I299M mutant of SEQ ID NO:14 (protein)
chain: B1 chain with I299M, K415S
modifications: mutant HPPD polypeptide
[1]
  catalytic activity and resistance to sulcotrione relative to control, unmutated SEQ ID NO:14: neutral mutations

B19: G254A: G254A mutant of SEQ ID NO:14 (protein)
chain: B1 chain with G254A, K415S
modifications: mutant HPPD polypeptide
[1]
  catalytic activity and resistance to sulcotrione relative to control, unmutated SEQ ID NO:14: neutral mutations

B20: V258A: V258A mutant of SEQ ID NO:14 (protein)
chain: B1 chain with V258A, K415S
modifications: mutant HPPD polypeptide
[1]
  catalytic activity and resistance to sulcotrione relative to control, unmutated SEQ ID NO:14: neutral mutations

B21: S420A: S420A mutant of SEQ ID NO:14 (protein)
chain: B1 chain with K415S, S420A
modifications: mutant HPPD polypeptide
[1]
  catalytic activity and resistance to sulcotrione relative to control, unmutated SEQ ID NO:14: neutral mutations

B22: V258I: V258I mutant of SEQ ID NO:14 (protein)
chain: B1 chain with V258I, K415S
modifications: mutant HPPD polypeptide
[1]
  catalytic activity and resistance to sulcotrione relative to control, unmutated SEQ ID NO:14: neutral mutations

B23: K411T: K411T mutant of HPPD SEQ ID NO:14 (protein)
chain: B1 chain with K411T, K415S
modifications: mutant HPPD polypeptide
[2]
  Rate: kcat relative to non-mutated HPPD SEQ ID NO:14: 1

B24: A326R: A326R mutant of HPPD SEQ ID NO:14 (protein)
chain: B1 chain with A326R, K415S
modifications: mutant HPPD polypeptide
[2]
  Rate: kcat relative to non-mutated HPPD SEQ ID NO:14: 1.2

B25: I421L: I421L mutant of SEQ ID NO:14 (protein)
chain: B1 chain with K415S, I421L
modifications: mutant HPPD polypeptide
[1]
  catalytic activity and resistance to sulcotrione relative to control, unmutated SEQ ID NO:14: neutral mutations

B26: E416Q: E416Q mutant of SEQ ID NO:14 (protein)
chain: B1 chain with K415S, E416Q
modifications: mutant HPPD polypeptide
[1]
  catalytic activity and resistance to sulcotrione relative to control, unmutated SEQ ID NO:14: neutral mutations

B27: SEQ ID #22: SEQ ID NO:14 with substitution of M for L within the sequence motif SGLNS (protein, listed as Avena sativa)
chain: B1 chain with L255M, K415S
[2]
  Km: 12.4 µM
  kcat: 5.79 s⁻¹
